From the supplement of paper PMC7877785
± gives the uncertainty stated by the source.

Test: self-splicing fitness, log relative to wild type (ln ratio); higher = more splicing; Tetrahymena group I intron in knt gene, E. coli kanamycin selection, DiMSum; sequences stand for … in CUCUCU…GGAGGGAAAAGUUAUCAGGCAUGCACCUGGUAGCUAGUCUUUAAACCAAUAGAUUGCAUCGGUUUAAAAGGCAAGACCGUCAAAUUGCGGGAAAGGGGUCAACAGCCGUUCAGUACCAAGUCUCAGGGGAAACUUUGAGAUGGCCUUGCAAAGGGUAUGGUAAUAAGCUGACGGACAUGGUCCUAACCACGCAGCCAAGUCCUAAGUCAACAGAUCUUCUGUUGAUAUGGAUGCAGUUCACAGACUAAAUGUCGGUCGGGGAAGAUGUAUUCUUCUCAUAAGAUAUAGUCGGACCUCUCCUUAAUGGGAGCUAGCGGAUGAAGUGAUGCAACACUGGAGCCGCUGGGAACUAAUUUGUAUGCGAAAGUAUAUUGAUUAGUUUUGGAGUACUCGUGGUCG
Summary of the method: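 A randomised library covering all eight P1ex-region intron nucleotides was built with the intron in the knt kanamycin-resistance gene on pET-22b(+) and held in E. coli BL21(DE3). Cells were grown overnight at 37°C or 30°C on LB agar, with or without 25 μg/mL kanamycin, plus 100 μg/mL carbenicillin, 50 μM IPTG and 0.2% rhamnose, and pooled colonies were amplicon-sequenced on an Illumina HiSeq 2500. DiMSum fitness is the error-weighted combination of wild-type-normalised replicate fold changes, kanamycin versus none.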

Row | Sequence | self-splicing fitness (ln) (30 °C) | self-splicing fitness (ln) (37 °C)
1 | ACCAAGCAAUAUUACGUGCA | -0.837 ± 0.065 | -0.466 ± 0.074
2 | ACCAAGCAAUAUUACGUGGA | -2.92 ± 0.14 | -1.49 ± 0.11
3 | ACCAAGCAAUAUUACGUUGU | -2.74 ± 0.094 | -0.985 ± 0.085
4 | ACCCAGCAAUAUUACGAACG | -3.06 ± 0.14 | -1.4 ± 0.14
5 | ACCCAGCAAUAUUACGACCC | -1.06 ± 0.13 | 0.555 ± 0.18
6 | ACCCAGCAAUAUUACGCGCA | -0.821 ± 0.061 | -0.299 ± 0.075
7 | ACCCAGCAAUAUUACGCGGG | -3.6 ± 0.13 | -3.08 ± 0.16
8 | ACCCAGCAAUAUUACGCGUA | -0.599 ± 0.07 | -1.08 ± 0.062
9 | ACCCAGCAAUAUUACGCGUC | -2.16 ± 0.088 | -1.42 ± 0.11
10 | ACCCAGCAAUAUUACGCUGA | -1.63 ± 0.087 | -0.241 ± 0.092
11 | ACCCAGCAAUAUUACGCUGU | -1.86 ± 0.075 | -0.908 ± 0.098
12 | ACCCAGCAAUAUUACGCUUA | -0.429 ± 0.07 | -0.188 ± 0.078
13 | ACCCAGCAAUAUUACGGACU | -0.261 ± 0.044 | 0.0991 ± 0.059
14 | ACCCAGCAAUAUUACGGAUC | -2.82 ± 0.085 | -1.16 ± 0.089
15 | ACCCAGCAAUAUUACGGAUU | -0.86 ± 0.048 | -0.157 ± 0.061
16 | ACCCAGCAAUAUUACGGCAC | -0.669 ± 0.079 | 0.0747 ± 0.12
17 | ACCCAGCAAUAUUACGGUUG | -3.66 ± 0.18 | -2.3 ± 0.19
18 | ACCCAGCAAUAUUACGUAAC | -1.49 ± 0.065 | -1.17 ± 0.1
19 | ACCCAGCAAUAUUACGUGGG | -3.34 ± 0.11 | -2.3 ± 0.13
20 | ACCCAGCAAUAUUACGUUAG | -3.31 ± 0.11 | -3.09 ± 0.15
21 | ACCGAGCAAUAUUACGAAGC | -3.47 ± 0.36 | -2.76 ± 0.36
22 | ACCGAGCAAUAUUACGACCG | -2.92 ± 0.22 | -1.52 ± 0.21
23 | ACCGAGCAAUAUUACGAGCU | -2.94 ± 0.23 | -2.54 ± 0.28
24 | ACCGAGCAAUAUUACGAUAA | -3.72 ± 0.23 | -2.01 ± 0.2
25 | ACCGAGCAAUAUUACGAUAU | -3.68 ± 0.18 | -1.54 ± 0.14
26 | ACCGAGCAAUAUUACGAUCG | -3.05 ± 0.33 | -1.64 ± 0.27

Row | Sequence | self-splicing fitness (ln) (30 °C) | self-splicing fitness (ln) (37 °C)
27 | ACCGAGCAAUAUUACGAUGA | -2.47 ± 0.17 | -2.73 ± 0.28
28 | ACCGAGCAAUAUUACGAUUU | -2.41 ± 0.11 | -0.954 ± 0.11
29 | ACCGAGCAAUAUUACGCAGC | -4.02 ± 0.47 | -2.84 ± 0.48
30 | ACCGAGCAAUAUUACGCAUG | -2.69 ± 0.13 | -2.47 ± 0.21
31 | ACCGAGCAAUAUUACGCGAA | -2.33 ± 0.32 | -3.17 ± 0.4
32 | ACCGAGCAAUAUUACGCUUC | -2.06 ± 0.36 | –
33 | ACCGAGCAAUAUUACGGACC | -1.29 ± 0.082 | -0.293 ± 0.092
34 | ACCGAGCAAUAUUACGGACG | -2.21 ± 0.15 | 0.0411 ± 0.13
35 | ACCGAGCAAUAUUACGGAGU | -3.72 ± 0.25 | -2.11 ± 0.18
36 | ACCGAGCAAUAUUACGGCAC | -2.07 ± 0.14 | -1.76 ± 0.27
37 | ACCGAGCAAUAUUACGGUCU | -3.36 ± 0.1 | -1.62 ± 0.092
38 | ACCGAGCAAUAUUACGUCGA | -3.13 ± 0.24 | -2.12 ± 0.15
39 | ACCGAGCAAUAUUACGUGAC | -4.19 ± 0.34 | -1.4 ± 0.15
40 | ACCGAGCAAUAUUACGUGCG | -1.64 ± 0.082 | -1.37 ± 0.13
41 | ACCUAGCAAUAUUACGACCU | -1.26 ± 0.1 | 0.455 ± 0.12
42 | ACCUAGCAAUAUUACGAGGC | -1.58 ± 0.18 | -2.64 ± 0.25
43 | ACCUAGCAAUAUUACGAUCA | -1.23 ± 0.17 | -1.19 ± 0.18
44 | ACCUAGCAAUAUUACGAUCU | -0.35 ± 0.079 | 0.0427 ± 0.1
45 | ACCUAGCAAUAUUACGAUGU | -0.605 ± 0.045 | 0.0835 ± 0.065
46 | ACCUAGCAAUAUUACGCAAA | -2.56 ± 0.3 | -1.76 ± 0.18
47 | ACCUAGCAAUAUUACGCACC | -1.24 ± 0.14 | 0.276 ± 0.16
48 | ACCUAGCAAUAUUACGCACG | -0.85 ± 0.099 | 0.0662 ± 0.12
49 | ACCUAGCAAUAUUACGCAGC | -1.43 ± 0.095 | -1.46 ± 0.12
50 | ACCUAGCAAUAUUACGCAUU | -1.42 ± 0.051 | -0.377 ± 0.056
51 | ACCUAGCAAUAUUACGCCAU | -3.51 ± 0.27 | -1.21 ± 0.19
52 | ACCUAGCAAUAUUACGCGAG | -3.54 ± 0.15 | -1.55 ± 0.11

Row | Sequence | self-splicing fitness (ln) (30 °C) | self-splicing fitness (ln) (37 °C)
53 | ACCUAGCAAUAUUACGCGAU | -2.32 ± 0.078 | -0.981 ± 0.087
54 | ACCUAGCAAUAUUACGCGUU | -2.76 ± 0.099 | -0.77 ± 0.085
55 | ACCUAGCAAUAUUACGGAAC | -3.04 ± 0.24 | –
56 | ACCUAGCAAUAUUACGGCAA | -1.41 ± 0.17 | 0.02 ± 0.14
57 | ACCUAGCAAUAUUACGGCAU | -0.00618 ± 0.076 | 0.451 ± 0.09
58 | ACCUAGCAAUAUUACGGGUA | -1.76 ± 0.12 | -1.19 ± 0.088
59 | ACCUAGCAAUAUUACGGUCC | -2.82 ± 0.15 | -2 ± 0.15
60 | ACCUAGCAAUAUUACGUACC | -1.59 ± 0.099 | -0.156 ± 0.11
61 | ACCUAGCAAUAUUACGUAGA | -2.73 ± 0.16 | -2.49 ± 0.21
62 | ACCUAGCAAUAUUACGUAGG | -3.59 ± 0.2 | -2.93 ± 0.21
63 | ACCUAGCAAUAUUACGUCGU | -0.733 ± 0.045 | -0.455 ± 0.059
64 | ACCUAGCAAUAUUACGUGUG | -1.28 ± 0.057 | -0.808 ± 0.064
65 | ACGAAGCAAUAUUACGAAAG | -3.2 ± 0.12 | -2.32 ± 0.16
66 | ACGAAGCAAUAUUACGACAG | -1.59 ± 0.11 | -0.583 ± 0.13
67 | ACGAAGCAAUAUUACGACUC | -1.12 ± 0.072 | -0.0297 ± 0.088
68 | ACGAAGCAAUAUUACGAGGC | -3.62 ± 0.21 | -1.81 ± 0.16
69 | ACGAAGCAAUAUUACGAUAG | -3.09 ± 0.23 | -1.87 ± 0.21
70 | ACGAAGCAAUAUUACGAUGC | -3.28 ± 0.21 | -2.01 ± 0.37
71 | ACGAAGCAAUAUUACGCAAC | -3.3 ± 0.25 | -2.38 ± 0.39
72 | ACGAAGCAAUAUUACGCAGA | -1.42 ± 0.12 | -1.1 ± 0.14
73 | ACGAAGCAAUAUUACGCUUC | -3.44 ± 0.19 | -2.59 ± 0.2
74 | ACGAAGCAAUAUUACGGAAA | -2.38 ± 0.17 | -3.02 ± 0.21
75 | ACGAAGCAAUAUUACGGAAU | -3.14 ± 0.12 | -1.34 ± 0.1
76 | ACGAAGCAAUAUUACGGAUA | -3.55 ± 0.32 | -2.43 ± 0.23
